{"source": "patent US6407221", "molecules": {"B1": {"name": "OKT8 (antibody, from another filing, V domains shown)", "VH": "EVQLQQSGAELVKPGASVKLSCTASGFNIKDTYIHFVRQRPEQGLEWIGRIDPANDNTLYASKFQGKATITADTSSNTAYMHLCSLTSGDTAVYYCGRGYGYYVFDHWGQGTTLTVSS", "VL": "DVQINQSPSFLAASPGETITINCRTSRSISQYLAWYQEKPGKTNKLLIYSGSTLQSGIPSRFSGSGSGTDFTLTISGLEPEDFAMYYCQQHNENPLTFGAGTKLELK"}}, "experiment_in_all_cases": "cell-based or functional assay", "key": {"[1]": {"target": "Jurkat Ti β chain (human)"}, "[2]": {"target": "CD4-zeta chimeric receptor F2 (human) (UniProt P01730)"}, "[3]": {"target": "CD4-zeta chimeric receptor F3 (human) (UniProt P01730)"}, "native CD4 (human)": {"target": "native CD4 (human) (UniProt P01730)"}, "[4]": {"target": "human HLA Class 1 antigens"}, "CD3 epsilon (human)": {"target": "CD3 epsilon (human) (UniProt P07766)"}, "CD8/zeta chimera (human)": {"target": "CD8/zeta chimera (human) (UniProt P01732)", "sequence (P01732 other isoform, or with tags, fused parts or gaps mutant)": "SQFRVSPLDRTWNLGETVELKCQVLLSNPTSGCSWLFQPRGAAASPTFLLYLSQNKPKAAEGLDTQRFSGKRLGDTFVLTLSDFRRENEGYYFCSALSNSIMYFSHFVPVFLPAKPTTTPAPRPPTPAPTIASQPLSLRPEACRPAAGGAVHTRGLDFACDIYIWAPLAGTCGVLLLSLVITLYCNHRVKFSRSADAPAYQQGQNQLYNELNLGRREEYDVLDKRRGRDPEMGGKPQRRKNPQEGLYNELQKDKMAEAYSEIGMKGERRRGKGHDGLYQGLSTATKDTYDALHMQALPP"}, "wild-type CD8 protein": {"target": "wild-type CD8 protein (UniProt P01732)"}}}
{"molecule": "C305 (antibody)", "values": [{"measurement": "IL-2 (Units/ml), JCD8/zeta 2, C305 + PMA, experiment #1", "setting": "[1]", "value": 3.7, "unit": "Units/ml"}, {"measurement": "IL-2 (Units/ml), JCD8/zeta 2, C305 + PMA, experiment #2", "setting": "[1]", "value": 2.1, "unit": "Units/ml"}, {"measurement": "IL-2 (Units/ml), Jurkat CD8, C305 + PMA, experiment #1", "setting": "[1]", "value": 13.5, "unit": "Units/ml"}, {"measurement": "IL-2 (Units/ml), Jurkat CD8, C305 + PMA, experiment #2", "setting": "[1]", "value": 9.1, "unit": "Units/ml"}, {"measurement": "internalization of the TCR after overnight incubation of JCD8/zeta 2 with saturating C305", "setting": "[1]", "value": 94, "unit": "%"}]}
{"molecule": "OKT4A (antibody)", "values": [{"measurement": "IL2 produced relative to stimulation with Ionomycin, Jurkat clone F2/1A11 (relative to Ionomycin = 100)", "setting": "[2]", "value": 86}, {"measurement": "IL2 produced relative to stimulation with Ionomycin, Jurkat clone F2/1D1 (relative to Ionomycin = 100)", "setting": "[2]", "value": 60}, {"measurement": "absolute level of IL2 produced, Jurkat clone F2/1A11", "setting": "[2]", "value": 543, "unit": "pg/mL"}, {"measurement": "absolute level of IL2 produced, Jurkat clone F2/1D1", "setting": "[2]", "value": 683, "unit": "pg/mL"}, {"measurement": "IL2 produced relative to stimulation with Ionomycin, Jurkat clone F3/2.2 (relative to Ionomycin = 100)", "setting": "[3]", "value": 160}, {"measurement": "IL2 produced relative to stimulation with Ionomycin, Jurkat clone F3/2.7 (relative to Ionomycin = 100)", "setting": "[3]", "value": 210}, {"measurement": "absolute level of IL2 produced, Jurkat clone F3/2.2", "setting": "[3]", "value": 1200, "unit": "pg/mL"}, {"measurement": "absolute level of IL2 produced, Jurkat clone F3/2.7", "setting": "[3]", "value": 671, "unit": "pg/mL"}, {"measurement": "IL2 produced relative to stimulation with Ionomycin, Jurkat clone CD4/1F7 (relative to Ionomycin = 100)", "setting": "native CD4 (human)", "value": 0.3}, {"measurement": "IL2 produced relative to stimulation with Ionomycin, Jurkat clone CD4/4.1 (relative to Ionomycin = 100)", "setting": "native CD4 (human)", "value": 2}, {"measurement": "absolute level of IL2 produced, Jurkat clone CD4/1F7", "setting": "native CD4 (human)", "value": 19, "unit": "pg/mL"}, {"measurement": "absolute level of IL2 produced, Jurkat clone CD4/4.1", "setting": "native CD4 (human)", "value": 9, "unit": "pg/mL"}]}
{"molecule": "W6/32 (antibody)", "values": [{"measurement": "IL2 produced relative to stimulation with Ionomycin, Jurkat clone CD4/1F7 (relative to Ionomycin = 100)", "setting": "[4]", "value": 0.1}, {"measurement": "IL2 produced relative to stimulation with Ionomycin, Jurkat clone CD4/4.1 (relative to Ionomycin = 100)", "setting": "[4]", "value": 0.7}, {"measurement": "IL2 produced relative to stimulation with Ionomycin, Jurkat clone F2/1A11 (relative to Ionomycin = 100)", "setting": "[4]", "value": 10}, {"measurement": "IL2 produced relative to stimulation with Ionomycin, Jurkat clone F2/1D1 (relative to Ionomycin = 100)", "setting": "[4]", "value": 11}, {"measurement": "IL2 produced relative to stimulation with Ionomycin, Jurkat clone F3/2.2 (relative to Ionomycin = 100)", "setting": "[4]", "value": 3}, {"measurement": "IL-2 (Units/ml), JCD8/zeta 2, W6/32 + PMA, experiment #1", "setting": "[4]", "value": "< 0.1", "unit": "Units/ml"}, {"measurement": "IL-2 (Units/ml), JCD8/zeta 2, W6/32 + PMA, experiment #2", "setting": "[4]", "value": "< 0.1", "unit": "Units/ml"}, {"measurement": "IL-2 (Units/ml), Jurkat CD8, W6/32 + PMA, experiment #1", "setting": "[4]", "value": "< 0.1", "unit": "Units/ml"}, {"measurement": "IL-2 (Units/ml), Jurkat CD8, W6/32 + PMA, experiment #2", "setting": "[4]", "value": "< 0.1", "unit": "Units/ml"}, {"measurement": "absolute level of IL2 produced, Jurkat clone CD4/1F7", "setting": "[4]", "value": 3, "unit": "pg/mL"}, {"measurement": "absolute level of IL2 produced, Jurkat clone CD4/4.1", "setting": "[4]", "value": 3, "unit": "pg/mL"}, {"measurement": "absolute level of IL2 produced, Jurkat clone F2/1A11", "setting": "[4]", "value": 104, "unit": "pg/mL"}, {"measurement": "absolute level of IL2 produced, Jurkat clone F2/1D1", "setting": "[4]", "value": 123, "unit": "pg/mL"}, {"measurement": "absolute level of IL2 produced, Jurkat clone F3/2.2", "setting": "[4]", "value": 19, "unit": "pg/mL"}, {"measurement": "absolute level of IL2 produced, Jurkat clone F3/2.7", "setting": "[4]", "value": 0, "unit": "pg/mL"}]}
{"molecule": "OKT3 (antibody)", "values": [{"measurement": "IL2 produced relative to stimulation with Ionomycin, Jurkat clone CD4/1F7 (relative to Ionomycin = 100)", "setting": "CD3 epsilon (human)", "value": 38}, {"measurement": "IL2 produced relative to stimulation with Ionomycin, Jurkat clone CD4/4.1 (relative to Ionomycin = 100)", "setting": "CD3 epsilon (human)", "value": 65}, {"measurement": "IL2 produced relative to stimulation with Ionomycin, Jurkat clone F2/1A11 (relative to Ionomycin = 100)", "setting": "CD3 epsilon (human)", "value": 51}, {"measurement": "IL2 produced relative to stimulation with Ionomycin, Jurkat clone F2/1D1 (relative to Ionomycin = 100)", "setting": "CD3 epsilon (human)", "value": 59}, {"measurement": "IL2 produced relative to stimulation with Ionomycin, Jurkat clone F3/2.2 (relative to Ionomycin = 100)", "setting": "CD3 epsilon (human)", "value": 65}, {"measurement": "IL2 produced relative to stimulation with Ionomycin, Jurkat clone F3/2.7 (relative to Ionomycin = 100)", "setting": "CD3 epsilon (human)", "value": 92}, {"measurement": "absolute level of IL2 produced, Jurkat clone CD4/1F7", "setting": "CD3 epsilon (human)", "value": 2100, "unit": "pg/mL"}, {"measurement": "absolute level of IL2 produced, Jurkat clone CD4/4.1", "setting": "CD3 epsilon (human)", "value": 309, "unit": "pg/mL"}, {"measurement": "absolute level of IL2 produced, Jurkat clone F2/1A11", "setting": "CD3 epsilon (human)", "value": 918, "unit": "pg/mL"}, {"measurement": "absolute level of IL2 produced, Jurkat clone F2/1D1", "setting": "CD3 epsilon (human)", "value": 671, "unit": "pg/mL"}, {"measurement": "absolute level of IL2 produced, Jurkat clone F3/2.2", "setting": "CD3 epsilon (human)", "value": 481, "unit": "pg/mL"}, {"measurement": "absolute level of IL2 produced, Jurkat clone F3/2.7", "setting": "CD3 epsilon (human)", "value": 295, "unit": "pg/mL"}]}
{"molecule": "B1", "values": [{"measurement": "IL-2 (Units/ml), JCD8/zeta 2, OKT8 + PMA, experiment #1", "setting": "CD8/zeta chimera (human)", "value": 6.8, "unit": "Units/ml"}, {"measurement": "IL-2 (Units/ml), JCD8/zeta 2, OKT8 + PMA, experiment #2", "setting": "CD8/zeta chimera (human)", "value": 7, "unit": "Units/ml"}, {"measurement": "IL-2 (Units/ml), Jurkat CD8, OKT8 + PMA, experiment #1", "setting": "wild-type CD8 protein", "value": "< 0.1", "unit": "Units/ml"}, {"measurement": "IL-2 (Units/ml), Jurkat CD8, OKT8 + PMA, experiment #2", "setting": "wild-type CD8 protein", "value": "< 0.1", "unit": "Units/ml"}]}
